Our source for the Kd values is article PMC5462531.

In assay [1] the target is Rbx1-Cul2, dimeric complex of full-length Rbx1 and full-length Cullin-2 (wild type) (human) (UniProt Q13617). Put plainly: ITC; VBC or SBC proteins (200 μM) titrated into Rbx1-Cul2 (20 μM), 303 K; 100 mM Bis tris propane pH 8.0, 50 mM NaCl, 2 mM TCEP; one-set-of-sites model.
Assay [2] deals with V^QRYBC, VBC with the pVHL triple mutation K159Q, S183R, D187Y (human) (UniProt P40337). Put plainly: ITC; Cul5NTD titrated into VBC or SBC proteins (Figure 7D: 200 μM into 20 μM, 303 K); 100 mM Bis tris propane pH 8.0, 50 mM NaCl, 2 mM TCEP; one-set-of-sites model.
Assay [3] concerns the target S^KSDBC, SBC with the SOCS2 triple mutation Q164K, R186S, Y190D (UniProt O14508). The assay is described as above.
Assay [4] has as its target SBC, trimeric complex of SOCS2, Elongin B and Elongin C (wild type) (UniProt O14508). The assay is described as above.

Chain of Cul5NTD, N-terminal domain of Cullin-5 (residues 1-386) (Q93034 1-386): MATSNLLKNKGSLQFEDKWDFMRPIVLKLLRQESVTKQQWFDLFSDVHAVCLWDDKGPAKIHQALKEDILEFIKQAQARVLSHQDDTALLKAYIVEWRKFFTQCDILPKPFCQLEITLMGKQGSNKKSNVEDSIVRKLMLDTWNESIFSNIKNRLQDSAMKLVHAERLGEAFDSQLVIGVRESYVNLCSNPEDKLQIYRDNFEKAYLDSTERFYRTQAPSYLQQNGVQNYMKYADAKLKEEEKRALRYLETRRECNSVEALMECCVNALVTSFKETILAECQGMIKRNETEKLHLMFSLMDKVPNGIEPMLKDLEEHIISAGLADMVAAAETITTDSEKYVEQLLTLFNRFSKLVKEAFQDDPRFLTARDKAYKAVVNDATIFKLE
Chain of Rbx1-Cul2, dimeric complex of full-length Rbx1 and full-length Cullin-2 (wild type) (human) (Q13617 whole entry, chain 1 of 2): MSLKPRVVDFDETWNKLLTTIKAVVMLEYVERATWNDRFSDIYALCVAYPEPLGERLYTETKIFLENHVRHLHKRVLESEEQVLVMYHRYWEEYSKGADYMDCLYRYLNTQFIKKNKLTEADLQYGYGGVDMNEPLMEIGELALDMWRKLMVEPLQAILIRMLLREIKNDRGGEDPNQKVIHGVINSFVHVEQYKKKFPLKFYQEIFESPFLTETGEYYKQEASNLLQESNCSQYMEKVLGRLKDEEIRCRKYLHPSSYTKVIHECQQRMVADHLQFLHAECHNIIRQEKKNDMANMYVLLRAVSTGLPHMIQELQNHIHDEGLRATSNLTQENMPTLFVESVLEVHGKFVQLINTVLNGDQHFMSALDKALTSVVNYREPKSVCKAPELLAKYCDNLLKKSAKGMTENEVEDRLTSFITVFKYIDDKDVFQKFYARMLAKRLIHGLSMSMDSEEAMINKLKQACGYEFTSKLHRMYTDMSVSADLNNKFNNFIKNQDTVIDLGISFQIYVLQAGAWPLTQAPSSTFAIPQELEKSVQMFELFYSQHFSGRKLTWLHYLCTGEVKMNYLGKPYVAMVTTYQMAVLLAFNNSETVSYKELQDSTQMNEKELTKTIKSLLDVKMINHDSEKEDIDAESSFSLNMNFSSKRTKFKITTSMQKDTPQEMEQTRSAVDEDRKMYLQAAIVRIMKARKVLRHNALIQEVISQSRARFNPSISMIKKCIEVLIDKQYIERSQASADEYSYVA
Chain of Rbx1-Cul2, dimeric complex of full-length Rbx1 and full-length Cullin-2 (wild type) (human) (P62877 whole entry, chain 2 of 2, further chain): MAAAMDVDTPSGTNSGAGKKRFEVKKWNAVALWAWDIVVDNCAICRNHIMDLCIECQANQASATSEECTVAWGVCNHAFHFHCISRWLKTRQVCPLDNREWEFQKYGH

As to “S^KSDBC, SBC with the SOCS2 triple mutation Q164K, R186S, Y190D (from UniProt O14508 32-198; Q15370 1-104; Q15369 17-112) (complex; other documents disagree on this pair)”, the Kd in assay [1] stood at 2500 nM.
For the substance “Cul5NTD, N-terminal domain of Cullin-5 (residues 1-386) (from UniProt Q93034 1-386) (domain or fragment)”, the Kd in assay [2] worked out at 2900 nM; in assay [3], 250 nM; in assay [4], 10 nM.
